Results reported in ChEMBL document CHEMBL2074044, “Two distinct mechanisms for bilirubin glucuronide transport by rat bile canalicular membrane vesicles. Demonstration of defective ATP-dependent transport in rats (TR-) with inherited conjugated hyperbilirubinemia” (J Clin Invest, 1992).

Substrate: C=CC1=C(C)/C(=C/c2[nH]c(Cc3[nH]c(/C=C4\NC(=O)C(C)=C4C=C)c(C)c3CCC(=O)O[C@@H]3O[C@@H](C(=O)O)[C@H](O)[C@@H](O)[C@@H]3O)c(CCC(=O)O[C@@H]3O[C@H](C(=O)O)[C@H](O)[C@H](O)[C@@H]3O)c2C)NC1=O
Experiment: TP_TRANSPORTER: uptake in bile canalicular membranes from Wistar rat
Assay type: functional, cell membranes, Bile canalicular membrane

B1: ATP-binding cassette sub-family C member 2 (Rattus norvegicus) (protein)
chain: MDKFCNSTFWDLSLLESPEADLPLCFEQTVLVWIPLGFLWLLAPWQLYSVYRSRTKRSSITKFYLAKQVFVVFLLILAAIDLSLALTEDTGQATVPPVRYTNPILYLCTWLLVLAVQHSRQWCVRKNSWFLSLFWILSVLCGVFQFQTLIRALLKDSKSNMAYSYLFFVSYGFQIVLLILTAFSGPSDSTQTPSVTASFLSSITFSWYDRTVLKGYKHPLTLEDVWDIDEGFKTRSVTSKFEAAMTKDLQKARQAFQRRLQKSQRKPEATLHGLNKKQSQSQDVLVLEEAKKKSEKTTKDYPKSWLIKSLFKTFHVVILKSFILKLIHDLLVFLNPQLLKLLIGFVKSSNSYVWFGYICAILMFAVTLIQSFCLQSYFQHCFVLGMCVRTTVMSSIYKKALTLSNLARKQYTIGETVNLMSVDSQKLMDATNYMQLVWSSVIQITLSIFFLWRELGPSILAGVGVMVLLIPVNGVLATKIRNIQVQNMKNKDKRLKIMNEILSGIKILKYFAWEPSFQEQVQGIRKKELKNLLRFGQLQSLLIFILQITPILVSVVTFSVYVLVDSANVLNAEKAFTSITLFNILRFPLSMLPMVTSSILQASVSVDRLERYLGGDDLDTSAIRRVSNFDKAVKFSEASFTWDPDLEATIQDVNLDIKPGQLVAVVGTVGSGKSSLVSAMLGEMENVHGHITIQGSTAYVPQQSWIQNGTIKDNILFGSEYNEKKYQQVLKACALLPDLEILPGGDMAEIGEKGINLSGGQKQRVSLARAAYQDADIYILDDPLSAVDAHVGKHIFNKVVGPNGLLAGKTRIFVTHGIHFLPQVDEIVVLGKGTILEKGSYRDLLDKKGVFARNWKTFMKHSGPEGEATVNNDSEAEDDDDGLIPTMEEIPEDAASLAMRRENSLRRTLSRSSRSSSRRGKSLKNSLKIKNVNVLKEKEKEVEGQKLIKKEFVETGKVKFSIYLKYLQAVGWWSILFIILFYGLNNVAFIGSNLWLSAWTSDSDNLNGTNNSSSHRDMRIGVFGALGLAQGICLLISTLWSIYACRNASKALHGQLLTNILRAPMRFFDTTPTGRIVNRFSGDISTVDDLLPQTLRSWMMCFFGIAGTLVMICMATPVFAIIIIPLSILYISVQVFYVATSRQLRRLDSVTKSPIYSHFSETVTGLPIIRAFEHQQRFLAWNEKQIDINQKCVFSWITSNRWLAIRLELVGNLVVFCSALLLVIYRKTLTGDVVGFVLSNALNITQTLNWLVRMTSEAETNIVAVERISEYINVENEAPWVTDKRPPADWPRHGEIQFNNYQVRYRPELDLVLKGITCNIKSGEKVGVVGRTGAGKSSLTNCLFRILESAGGQIIIDGIDVASIGLHDLRERLTIIPQDPILFSGSLRMNLDPFNKYSDEEVWRALELAHLRSFVSGLQLGLLSEVTEGGDNLSIGQRQLLCLGRAVLRKSKILVLDEATAAVDLETDSLIQTTIRKEFSQCTVITIAHRLHTIMDSDKIMVLDNGKIVEYGSPEELLSNRGSFYLMAKEAGIENVNHTEL
Km: 71 µM
